Literature values as cited in patent US20250312434A1, “LIPOPOLYSACCHARIDE (LPS) DEFICIENT ACINETOBACTER BAUMANNII M[…]” (VAXDYN S.L., priority 2021, published 2025).

Legend:
P. aeruginosa [1] = settings: 4 intraperitoneal doses of 50 μg
P. aeruginosa [2] = settings: 2 intraperitoneal doses of 10 ug
[3] = tested on: P. aeruginosa strain PAO1; settings: Balb/c female mice, 4 subcutaneous doses of 50ug; intranasal PAO1
P. aeruginosa strain PAK = settings: Balb/c female mice, 4 subcutaneous doses of 50ug; intranasal PAK

Molecule: purified OprI: P. aeruginosa outer membrane lipoprotein OprI, purified
- LD50 in immunized versus not immunized animals (P. aeruginosa [1]): up to 35 fold

B1: purified OprF: purified OprF from P. aeruginosa PAO1 (protein, UniProt P13794 25-350, looked up)
Outer membrane porin F: QGQNSVEIEAFGKRYFTDSVRNMKNADLYGGSIGYFLTDDVELALSYGEYHDVRGTYETGNKKVHGNLTSLDAIYHFGTPGVGLRPYVSAGLAHQNITNINSDSQGRQQMTMANIGAGLKYYFTENFFAKASLDGQYGLEKRDNGHQGEWMAGLGVGFNFGGSKAAPAPEPVADVCSDSDNDGVCDNVDKCPDTPANVTVDANGCPAVAEVVRVQLDVKFDFDKSKVKENSYADIKNLADFMKQYPSTSTTVEGHTDSVGTDAYNQKLSERRANAVRDVLVNEYGVEGGRVNAVGYGESRPVADNATAEGRAINRRVEAEVEAEAK
- protection (P. aeruginosa [2]): up to 67%

B2: rOprF: recombinant full-length OprF from P. aeruginosa expressed in Escherichia coli (protein, UniProt P13794 1-350, looked up)
chain: MKLKNTLGVVIGSLVAASAMNAFAQGQNSVEIEAFGKRYFTDSVRNMKNADLYGGSIGYFLTDDVELALSYGEYHDVRGTYETGNKKVHGNLTSLDAIYHFGTPGVGLRPYVSAGLAHQNITNINSDSQGRQQMTMANIGAGLKYYFTENFFAKASLDGQYGLEKRDNGHQGEWMAGLGVGFNFGGSKAAPAPEPVADVCSDSDNDGVCDNVDKCPDTPANVTVDANGCPAVAEVVRVQLDVKFDFDKSKVKENSYADIKNLADFMKQYPSTSTTVEGHTDSVGTDAYNQKLSERRANAVRDVLVNEYGVEGGRVNAVGYGESRPVADNATAEGRAINRRVEAEVEAEAK
modifications: full-length
notes: recombinant full-length OprF from P. aeruginosa expressed in Escherichia coli
- survival at 7 days [3]: 50%
- survival at 7 days (P. aeruginosa strain PAK): 60%
